For assay [1], the target named is CHMP1A (positive-control partner of the Gal4-CHMP1B constructs in the two-hybrid assay). Briefly: yeast two-hybrid (β-galactosidase activity). To be noted: parent: est. 0.71; read off a plot.
Assay [2] concerns the target IST1 MIM1 peptide (residues 344–366), fluorescently labeled (human). In words: fluorescence polarisation; 250 pM Oregon Green 488-labeled IST1 peptides, twofold dilutions of ULK3 proteins; 25 mM Tris pH 7.2, 150 mM NaCl, 0.1 mg/mL BSA, 0.01% Tween-20, 1 mM DTT; 1:1 fit. A general note: Polarisation of emitted light reports the rotation of a fluorescent probe.
Assay [3] concerns the target IST1 MIMs peptide (residues 316–366), fluorescently labeled (human). Described as above.

Consider “CHMP1B WT fused to the Gal4 DNA-binding domain (from UniProt Q7LBR1) T178R; A181R; E184R”, for which the response in assay [1] is 0.89.

A word on the Kd: it is the concentration at which binding is half-saturated. Lower therefore signals higher affinity. In the case of “ULK3 MIT2 (residues 359–449) (from UniProt Q6PHR2 359-449) (domain or fragment)”, in assay [2], the Kd was determined as 0.77 µM.

For “ULK3(MIT)2 (residues 277–449) (from UniProt Q6PHR2 277-449) (domain or fragment)”, the Kd in assay [3] was determined as 0.2 µM.

On to “ULK3(MIT)2 M434D (from UniProt Q6PHR2 277-449) (domain or fragment)”, for which, in assay [3], the fold reduction of binding against wild-type ULK3(MIT)2 was over 100 fold.

For the substance “ULK3(MIT)2 V338D (from UniProt Q6PHR2 277-449) (domain or fragment)”, in assay [3], the fold reduction of binding against wild-type ULK3(MIT)2 was under 2 fold.

Source of the values: article PMC4475061.
